{"source": "the Immune Epitope Database (IEDB)", "key": {"HLA-A*02:01 [1]": {"target": "HLA-A*02:01", "assay": "IEDB peptide-MHC binding, purified MHC/direct/fluorescence; filed as Kd, often an IC50 or EC50 that approximates it; ≥ and ≤ were set here for values at or beyond the usual limits of such assays", "settings": "source organism: Salmonella enterica subsp. enterica serovar Typhimurium"}, "HLA-A*31:01": {"target": "HLA-A*31:01", "assay": "IEDB peptide-MHC binding, purified MHC/direct/fluorescence; filed as Kd, often an IC50 or EC50 that approximates it; ≥ and ≤ were set here for values at or beyond the usual limits of such assays", "settings": "source organism: Salmonella enterica subsp. enterica serovar Typhimurium"}, "HLA-A*69:01": {"target": "HLA-A*69:01", "assay": "IEDB peptide-MHC binding, purified MHC/direct/fluorescence; filed as Kd, often an IC50 or EC50 that approximates it; ≥ and ≤ were set here for values at or beyond the usual limits of such assays", "settings": "source organism: Salmonella enterica subsp. enterica serovar Typhimurium"}, "HLA-B*15:01": {"target": "HLA-B*15:01", "assay": "IEDB peptide-MHC binding, purified MHC/direct/fluorescence; filed as Kd, often an IC50 or EC50 that approximates it; ≥ and ≤ were set here for values at or beyond the usual limits of such assays", "settings": "source organism: Salmonella enterica subsp. enterica serovar Typhimurium"}, "HLA-B*27:05": {"target": "HLA-B*27:05", "assay": "IEDB peptide-MHC binding, purified MHC/direct/fluorescence; filed as Kd, often an IC50 or EC50 that approximates it; ≥ and ≤ were set here for values at or beyond the usual limits of such assays", "settings": "source organism: Salmonella enterica subsp. enterica serovar Typhimurium"}, "HLA-A*01:01": {"target": "HLA-A*01:01", "assay": "IEDB peptide-MHC binding, purified MHC/competitive/radioactivity; filed as Kd, often an IC50 or EC50 that approximates it; ≥ and ≤ were set here for values at or beyond the usual limits of such assays", "settings": "source organism: Mammarenavirus guanaritoense"}, "HLA-A*26:01": {"target": "HLA-A*26:01", "assay": "IEDB peptide-MHC binding, purified MHC/competitive/radioactivity; filed as Kd, often an IC50 or EC50 that approximates it; ≥ and ≤ were set here for values at or beyond the usual limits of such assays", "settings": "source organism: Mammarenavirus guanaritoense"}, "HLA-A*29:02": {"target": "HLA-A*29:02", "assay": "IEDB peptide-MHC binding, purified MHC/competitive/radioactivity; filed as Kd, often an IC50 or EC50 that approximates it; ≥ and ≤ were set here for values at or beyond the usual limits of such assays", "settings": "source organism: Mammarenavirus guanaritoense"}, "HLA-A*30:01": {"target": "HLA-A*30:01", "assay": "IEDB peptide-MHC binding, purified MHC/competitive/radioactivity; filed as Kd, often an IC50 or EC50 that approximates it; ≥ and ≤ were set here for values at or beyond the usual limits of such assays", "settings": "source organism: Mammarenavirus guanaritoense"}, "HLA-A*30:02": {"target": "HLA-A*30:02", "assay": "IEDB peptide-MHC binding, purified MHC/competitive/radioactivity; filed as Kd, often an IC50 or EC50 that approximates it; ≥ and ≤ were set here for values at or beyond the usual limits of such assays", "settings": "source organism: Mammarenavirus guanaritoense"}, "HLA-A*32:01": {"target": "HLA-A*32:01", "assay": "IEDB peptide-MHC binding, purified MHC/competitive/radioactivity; filed as Kd, often an IC50 or EC50 that approximates it; ≥ and ≤ were set here for values at or beyond the usual limits of such assays", "settings": "source organism: Mammarenavirus guanaritoense"}, "HLA-B*08:01 [2]": {"target": "HLA-B*08:01", "assay": "IEDB peptide-MHC binding, purified MHC/competitive/radioactivity; filed as Kd, often an IC50 or EC50 that approximates it; ≥ and ≤ were set here for values at or beyond the usual limits of such assays"}, "HLA-A*02:01 [3]": {"target": "HLA-A*02:01", "assay": "IEDB peptide-MHC binding, purified MHC/competitive/radioactivity; filed as Kd, often an IC50 or EC50 that approximates it; ≥ and ≤ were set here for values at or beyond the usual limits of such assays"}, "HLA-A*24:02": {"target": "HLA-A*24:02", "assay": "IEDB peptide-MHC binding, purified MHC/competitive/fluorescence; ≥ and ≤ were set here for values at or beyond the usual limits of such assays"}, "HLA-B*51:01": {"target": "HLA-B*51:01", "assay": "IEDB peptide-MHC binding, purified MHC/competitive/radioactivity; filed as Kd, often an IC50 or EC50 that approximates it; ≥ and ≤ were set here for values at or beyond the usual limits of such assays", "settings": "source organism: Dengue virus 2 Jamaica/1409/1983"}, "HLA-A*02:03": {"target": "HLA-A*02:03", "assay": "IEDB peptide-MHC binding, purified MHC/competitive/radioactivity; filed as Kd, often an IC50 or EC50 that approximates it; ≥ and ≤ were set here for values at or beyond the usual limits of such assays"}, "HLA-A*02:06": {"target": "HLA-A*02:06", "assay": "IEDB peptide-MHC binding, purified MHC/competitive/radioactivity; filed as Kd, often an IC50 or EC50 that approximates it; ≥ and ≤ were set here for values at or beyond the usual limits of such assays", "settings": "source organism: Vaccinia virus WR"}, "HLA-A*02:01 [4]": {"target": "HLA-A*02:01", "assay": "IEDB peptide-MHC binding, purified MHC/competitive/fluorescence; ≥ and ≤ were set here for values at or beyond the usual limits of such assays", "settings": "source organism: Sudan ebolavirus"}, "HLA-B*35:01": {"target": "HLA-B*35:01", "assay": "IEDB peptide-MHC binding, purified MHC/competitive/radioactivity; filed as Kd, often an IC50 or EC50 that approximates it; ≥ and ≤ were set here for values at or beyond the usual limits of such assays", "settings": "source organism: Dengue virus 3 Martinique/1243/1999"}, "HLA-B*08:01 [5]": {"target": "HLA-B*08:01", "assay": "IEDB peptide-MHC binding, purified MHC/direct/fluorescence; filed as Kd, often an IC50 or EC50 that approximates it; ≥ and ≤ were set here for values at or beyond the usual limits of such assays", "settings": "source organism: Burkholderia mallei ATCC 23344"}, "HLA-B*07:02": {"target": "HLA-B*07:02", "assay": "IEDB peptide-MHC binding, purified MHC/direct/fluorescence; filed as Kd, often an IC50 or EC50 that approximates it; ≥ and ≤ were set here for values at or beyond the usual limits of such assays", "settings": "source organism: Human immunodeficiency virus type 1 (WMJ2 ISOLATE)"}, "[6]": {"settings": "source organism: Vaccinia virus WR"}, "[7]": {"settings": "source organism: Zaire ebolavirus"}, "[8]": {"settings": "source organism: Dengue virus 4 Philippines/H241/1956"}}, "data": [{"sequence": "GMKAFTAAV", "values": [{"measurement": "Kd", "setting": "HLA-A*02:01 [1]", "value": 0.281, "unit": "µM"}, {"measurement": "Kd", "setting": "HLA-A*31:01", "value": 0.0748, "unit": "µM"}, {"measurement": "Kd", "setting": "HLA-A*69:01", "value": 3.56, "unit": "µM"}, {"measurement": "Kd", "setting": "HLA-B*15:01", "value": 0.059, "unit": "µM"}, {"measurement": "Kd", "setting": "HLA-B*27:05", "value": 7.26, "unit": "µM"}]}, {"sequence": "GTDPYRPSF", "values": [{"measurement": "Kd", "setting": "HLA-A*01:01", "value": 7.15, "unit": "µM"}, {"measurement": "Kd", "setting": "HLA-A*26:01", "value": "≥ 77.9", "unit": "µM"}, {"measurement": "Kd", "setting": "HLA-A*29:02", "value": 11, "unit": "µM"}, {"measurement": "Kd", "setting": "HLA-A*30:01", "value": "≥ 30.3", "unit": "µM"}, {"measurement": "Kd", "setting": "HLA-A*30:02", "value": 5.28, "unit": "µM"}, {"measurement": "Kd", "setting": "HLA-A*32:01", "value": 2.43, "unit": "µM"}]}, {"sequence": "EKIIHFLTI", "values": [{"measurement": "Kd", "setting": "HLA-B*08:01 [2]; [6]", "value": 0.00504, "unit": "µM"}]}, {"sequence": "NPKFFKVYL", "values": [{"measurement": "Kd", "setting": "HLA-B*08:01 [2]; [6]", "value": 0.19, "unit": "µM"}]}, {"sequence": "SIRYRQRLI", "values": [{"measurement": "Kd", "setting": "HLA-B*08:01 [2]; [6]", "value": 0.218, "unit": "µM"}]}, {"sequence": "SLLMWITQCFL", "values": [{"measurement": "Kd", "setting": "HLA-A*02:01 [3]; source organism: Homo sapiens", "value": "≥ 50000", "unit": "nM"}]}, {"sequence": "EDPSSGYYS", "values": [{"measurement": "IC50", "setting": "HLA-A*24:02; [7]", "value": "≥ 185", "unit": "µM"}]}, {"sequence": "IPITAAAWYL", "values": [{"measurement": "Kd", "setting": "HLA-B*08:01 [2]; source organism: Dengue virus 2 Jamaica/1409/1983", "value": 3.76, "unit": "µM"}, {"measurement": "Kd", "setting": "HLA-B*51:01", "value": 6.23, "unit": "µM"}]}, {"sequence": "VKPKGKVVDL", "values": [{"measurement": "Kd", "setting": "HLA-B*08:01 [2]; [8]", "value": 2.15, "unit": "µM"}]}, {"sequence": "FLNISWFYI", "values": [{"measurement": "Kd", "setting": "HLA-A*02:01 [3]; [6]", "value": 0.0142, "unit": "nM"}, {"measurement": "Kd", "setting": "HLA-A*02:03; [6]", "value": 0.0011, "unit": "µM"}, {"measurement": "Kd", "setting": "HLA-A*02:06", "value": 0.000667, "unit": "µM"}]}, {"sequence": "LYDRLASTV", "values": [{"measurement": "IC50", "setting": "HLA-A*02:01 [4]", "value": 7.48, "unit": "µM"}, {"measurement": "IC50", "setting": "HLA-A*24:02; source organism: Sudan ebolavirus", "value": 1.32, "unit": "µM"}]}, {"sequence": "SKSTDFLDP", "values": [{"measurement": "IC50", "setting": "HLA-A*24:02; [7]", "value": "≥ 592", "unit": "µM"}]}, {"sequence": "IPFSTEDGQG", "values": [{"measurement": "Kd", "setting": "HLA-B*35:01", "value": 1.73, "unit": "µM"}]}, {"sequence": "VHEHDQIGD", "values": [{"measurement": "IC50", "setting": "HLA-A*24:02; source organism: Variola virus", "value": 1.87, "unit": "µM"}]}, {"sequence": "GIMAVGLVSL", "values": [{"measurement": "Kd", "setting": "HLA-A*02:03; [8]", "value": 0.0241, "unit": "µM"}, {"measurement": "Kd", "setting": "HLA-B*08:01 [2]; [8]", "value": 1.23, "unit": "µM"}]}, {"sequence": "YLKWRWLHF", "values": [{"measurement": "Kd", "setting": "HLA-B*08:01 [5]", "value": 0.002, "unit": "µM"}]}, {"sequence": "IPRRIRQGL", "values": [{"measurement": "Kd", "setting": "HLA-B*07:02", "value": 0.0948, "unit": "µM"}]}, {"sequence": "RTNDWDFVV", "values": [{"measurement": "Kd", "setting": "HLA-A*02:01 [3]; source organism: dengue virus type 2", "value": 167, "unit": "nM"}]}]}
